Results: publication PMC4423205

Assays:
Assay in all cases: SPR
Conditions in all cases: all L-ribonucleotides (L-RNA, mirror image); SPR (Biacore 2000), chemokine immobilized on CM4/CM5, physiological running buffer, 37 C; complex formation in 20 mM HEPES pH 7.4, 100 mM NaCl, 5 mM KCl, 1 mM …
[1] = target: CCL11 (eotaxin) (Homo sapiens) (UniProt P51671)
[2] = target: CCL13 (MCP-4) (Homo sapiens) (UniProt Q99616)
[3] = target: CCL2 R24A R47A (Homo sapiens) (UniProt P13500)
[4] = target: CCL2 (MCP-1), wild type (Homo sapiens) (UniProt P13500)
[5] = target: CCL2 S63Y S86Y (Homo sapiens) (UniProt P13500)
[6] = target: CCL2 S63F S86F (Homo sapiens) (UniProt P13500)
[7] = target: CCL2 S21P S44P (Homo sapiens) (UniProt P13500)
[8] = target: T1, CCL8 (MCP-2) (Homo sapiens) (UniProt P80075)
T1 sequence: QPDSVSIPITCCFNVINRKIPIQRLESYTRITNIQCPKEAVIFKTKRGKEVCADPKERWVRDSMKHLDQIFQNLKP

[9] = target: CCL2 K19A K42A (Homo sapiens) (UniProt P13500)
[10] = target: CCL2 R18A R41A (Homo sapiens) (UniProt P13500)
Chain of CCL2 R18A R41A (Homo sapiens) (P13500 24-99 R41A): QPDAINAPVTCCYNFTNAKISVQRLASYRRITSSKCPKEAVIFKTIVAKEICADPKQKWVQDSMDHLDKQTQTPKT

Chain of CCL2 S63Y S86Y (Homo sapiens) (P13500 24-99 S86Y): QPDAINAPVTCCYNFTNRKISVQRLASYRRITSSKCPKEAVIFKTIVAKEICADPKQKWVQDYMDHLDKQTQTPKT
Chain of CCL2 K19A K42A (Homo sapiens) (P13500 24-99 K42A): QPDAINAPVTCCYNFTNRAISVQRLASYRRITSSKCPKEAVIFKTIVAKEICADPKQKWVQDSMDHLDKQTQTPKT
Chain of CCL2 (MCP-1), wild type (Homo sapiens) (P13500 24-99): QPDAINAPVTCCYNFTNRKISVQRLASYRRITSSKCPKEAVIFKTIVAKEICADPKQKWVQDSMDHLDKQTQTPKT
Chain of CCL2 S21P S44P (Homo sapiens) (P13500 24-99 S44P): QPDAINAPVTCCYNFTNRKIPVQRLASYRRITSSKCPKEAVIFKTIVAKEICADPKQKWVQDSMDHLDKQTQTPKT
Chain of CCL13 (MCP-4) (Homo sapiens) (Q99616 24-98): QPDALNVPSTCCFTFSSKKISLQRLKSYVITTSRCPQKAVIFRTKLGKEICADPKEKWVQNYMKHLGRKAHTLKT
Chain of CCL11 (eotaxin) (Homo sapiens) (P51671 24-97): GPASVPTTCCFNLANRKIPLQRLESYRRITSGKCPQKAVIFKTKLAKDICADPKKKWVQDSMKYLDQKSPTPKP
Chain of CCL2 S63F S86F (Homo sapiens) (P13500 24-99 S86F): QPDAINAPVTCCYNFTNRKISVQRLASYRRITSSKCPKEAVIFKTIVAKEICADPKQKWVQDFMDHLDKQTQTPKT
Chain of CCL2 R24A R47A (Homo sapiens) (P13500 24-99 R47A): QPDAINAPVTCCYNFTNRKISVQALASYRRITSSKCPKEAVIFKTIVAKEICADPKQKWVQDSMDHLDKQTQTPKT

With “GCACGUCCCUCACCGGUGCAAGUGAAGCCGUGGCUCUGCG [NOX-E36 L-aptamer (Spiegelmer, without PEG)]” as the sequence, how does the Kd [1] read?
The Kd was 3.06 nM.

What about the Kd [2] of the same sequence?
The Kd was 22 nM.

What about the Kd [3] of the same sequence?
The Kd was 8280 nM.

And the Kd [4]?
Its Kd is 1.32 nM.

And the Kd [5]?
The Kd was 74.4 nM.

What about the Kd [6] of the same sequence?
The Kd was 54.4 nM.

And the Kd [7]?
Its Kd is 7.94 nM.

And the Kd [8]?
Its Kd is 3.35 nM.

And the Kd [9]?
The Kd was 4130 nM.

And the Kd [10]?
The Kd was 14.1 nM.
